Assay results as given in patent publication US20180086841A1 (Merck Sharp & Dohme, published 2018).
Substitutions are numbered along the chain they refer to.

How the values were obtained:
Assay in all cases: flow cytometry on CHO-K1 transfectants;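 also: Anti-hCD27 antibodies tested on transiently transfected CHO-K1 cells bearing hCD27 alanine mutants, 30 min at 4 °C primary incubation, FITC readout excluding debris, dead cells and doublets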
S63A = target: T1, S63A
T1 construct: also called hCD27 S63A
T1 receptor chain: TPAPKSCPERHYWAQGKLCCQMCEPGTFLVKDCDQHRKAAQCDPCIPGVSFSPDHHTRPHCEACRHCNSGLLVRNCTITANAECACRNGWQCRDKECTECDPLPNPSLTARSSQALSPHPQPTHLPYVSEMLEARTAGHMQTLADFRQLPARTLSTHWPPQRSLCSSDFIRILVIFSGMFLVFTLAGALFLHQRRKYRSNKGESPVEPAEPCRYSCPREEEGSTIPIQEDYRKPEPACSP
Description: (§1) The hCD27 variants that were tested are listed. Amino acids correspond to the UniProt P26842-1 sequence. Amino acids 1-20 constitute the signal peptide. Binding is expressed as the geometric mean of the FITC signal, relative to antibody binding to hCD27, which was set at 100%.
(§2) The ability of several anti-hCD27 antibodies to bind to a series of hCD27 alanine mutants was determined using CHO-K1 cells, transiently transfected pCI-neo empty vector, pCI-neo.hCD27 and several pCI-neo.CD27Ala mutant constructs.
(§3) Detached cells were transferred to 96 wells round-bottomed well plates at approximately 1.2×10⁵ cells/well. After spinning down the cells, discarding the supernatants and re-suspending the cells in the residual volume, the primary antibodies were added and incubated for 30 minutes at 4° C. Cells were washed three times with DPBS/BSA 1%, followed by centrifugation, discarding of the supernatants and re-suspension in the residual volume. […] After washing once, antibody binding was detected using the HTS plate reader (FACS Canto II) and FlowJo software for data analysis. Debris, dead cells and doublets were excluded from the analysis. Binding was expressed as the geometric mean of the FITC signal, relative to antibody binding to hCD27, which was set at 100%.

R87A = target: T2, R87A
T2 construct: also called hCD27 R87A
T2 receptor chain: T1 receptor chain with A63S, R87A
Description: as §1, §2, §3

V49A = target: T3, V49A
T3 construct: also called hCD27 V49A
T3 receptor chain: T1 receptor chain with V49A, A63S
Description: as §1, §2, §3

K38A = target: T4, K38A
T4 construct: also called hCD27 K38A
T4 receptor chain: T1 receptor chain with K38A, A63S
Description: as §1, §2, §3

R10A = target: T5, R10A
T5 construct: also called hCD27 R10A
T5 receptor chain: T1 receptor chain with R10A, A63S
Description: as §1, §2, §3

G16A = target: T6, G16A
T6 construct: also called hCD27 G16A
T6 receptor chain: T1 receptor chain with G16A, A63S
Description: as §1, §2, §3

I46A = target: T7, I46A
T7 construct: also called hCD27 I46A
T7 receptor chain: T1 receptor chain with I46A, A63S
Description: as §1, §2, §3

N88A = target: T8, N88A
T8 construct: also called hCD27 N88A
T8 receptor chain: T1 receptor chain with A63S, N88A
Description: as §1, §2, §3

V30A = target: T9, V30A
T9 construct: also called hCD27 V30A
T9 receptor chain: T1 receptor chain with V30A, A63S
Description: as §1, §2, §3

R37A = target: T10, R37A
T10 construct: also called hCD27 R37A
T10 receptor chain: T1 receptor chain with R37A, A63S
Description: as §1, §2, §3

B1: hCD27.15-6B (antibody, human IgG4 S228P, kappa, V domains shown)
VH: QVQLVQSGAEVKKPGASVKVSCKASGFIIKATYMHWVRQAPGQRLEWMGRIDPANGETKYDPKFQVRVTITADTSASTAYMELSSLRSEDTAVYYCARYAWYFDVWGQGTLVTVSS
VL: DIQMTQSPSSLSASVGDRVTITCRASENIYSFLAWYQQKPGKAPKLLIYHAKTLAEGVTSRFSGSGSGTDFTLTISSLQPEDSATYYCQHYYGSPLTFGQGTRLEIKR
notes: also called hCD27.15 (humanized 6B); humanized hCD27.15 (human IgG4, Clone 6B)
binding, WT hCD27 = 100 (GM FITC) (S63A): 104% | binding, WT hCD27 = 100 (GM FITC) (R87A): 114% | binding, WT hCD27 = 100 (GM FITC) (V49A): 69% | binding, WT hCD27 = 100 (GM FITC) (K38A): 97.6% | binding, WT hCD27 = 100 (GM FITC) (R10A): 58.9% | binding, WT hCD27 = 100 (GM FITC) (G16A): 141% | binding, WT hCD27 = 100 (GM FITC) (I46A): 81.9% | binding, WT hCD27 = 100 (GM FITC) (N88A): 132% | binding, WT hCD27 = 100 (GM FITC) (V30A): 82.6% | binding, WT hCD27 = 100 (GM FITC) (R37A): 106%
